B1: Keratin, type II cytoskeletal 79 (Homo sapiens), Q5XKE5 (parent)
chain: MRSSVSRQTYSTKGGFSSNSASGGSGSQARTSFSSVTVSRSSGSGGGAHCGPGTGGFGSRSLYNLGGHKSISVSVAGGALLGRALGGFGFGSRAFMGQGAGRQTFGPACPPGGIQEVTVNQSLLTPLHVEIDPEIQRVRTQEREQIKTLNNKFASFIDKVRFLEQQNKVLETKWALLQEQGQNLGVTRNNLEPLFEAYLGSMRSTLDRLQSERGRLDSELRNVQDLVEDFKNKYEDEINKHTAAENEFVVLKKDVDAAYMGRMDLHGKVGTLTQEIDFLQQLYEMELSQVQTHVSNTNVVLSMDNNRNLDLDSIIAEVKAQYELIAQRSRAEAEAWYQTKYEELQVTAGKHGDNLRDTKNEIAELTRTIQRLQGEADAAKKQCQQLQTAIAEAEQRGELALKDAQKKLGDLDVALHQAKEDLTRLLRDYQELMNVKLALDVEIATYRKLLESEESRMSGECPSAVSISVTGNSTTVCGGGAASFGGGISLGGSGGATKGGFSTNVGYSTVKGGPVSAGTSILRKTTTVKTSSQRY
partner: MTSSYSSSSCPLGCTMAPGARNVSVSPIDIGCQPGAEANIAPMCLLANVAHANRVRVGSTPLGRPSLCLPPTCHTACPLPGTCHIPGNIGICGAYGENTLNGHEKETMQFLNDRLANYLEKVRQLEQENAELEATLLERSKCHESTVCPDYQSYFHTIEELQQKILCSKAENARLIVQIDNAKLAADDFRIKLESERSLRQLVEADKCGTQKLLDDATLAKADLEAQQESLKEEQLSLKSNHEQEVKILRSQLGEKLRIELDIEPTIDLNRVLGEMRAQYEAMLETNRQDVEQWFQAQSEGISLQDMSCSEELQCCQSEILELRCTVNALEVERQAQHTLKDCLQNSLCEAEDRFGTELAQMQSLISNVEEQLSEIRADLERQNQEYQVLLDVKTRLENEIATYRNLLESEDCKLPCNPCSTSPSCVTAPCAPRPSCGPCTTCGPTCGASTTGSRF
B2: Ornithine decarboxylase antizyme 3 (Homo sapiens), Q9UMX2 (parent)
chain: MPCKRCRPSVYSLSYIKRGKTRNYLYPIWSPYAYYLYCYKYRITLREKMLPRCYKSITYKEEEDLTLQPRSCLQCSESLVGLQEGKSTEQGNHDQLKELYSAGNLTVLATDPLLHQDPVQLDFHFRLTSQTSAHWHGLLCDRRLFLDIPYQALDQGNRESLTATLEYVEEKTNVDSVFVNFQNDRNDRGALLRAFSYMGFEVVRPDHPALPPLDNVIFMVYPLERDVGHLPSEPP
partner: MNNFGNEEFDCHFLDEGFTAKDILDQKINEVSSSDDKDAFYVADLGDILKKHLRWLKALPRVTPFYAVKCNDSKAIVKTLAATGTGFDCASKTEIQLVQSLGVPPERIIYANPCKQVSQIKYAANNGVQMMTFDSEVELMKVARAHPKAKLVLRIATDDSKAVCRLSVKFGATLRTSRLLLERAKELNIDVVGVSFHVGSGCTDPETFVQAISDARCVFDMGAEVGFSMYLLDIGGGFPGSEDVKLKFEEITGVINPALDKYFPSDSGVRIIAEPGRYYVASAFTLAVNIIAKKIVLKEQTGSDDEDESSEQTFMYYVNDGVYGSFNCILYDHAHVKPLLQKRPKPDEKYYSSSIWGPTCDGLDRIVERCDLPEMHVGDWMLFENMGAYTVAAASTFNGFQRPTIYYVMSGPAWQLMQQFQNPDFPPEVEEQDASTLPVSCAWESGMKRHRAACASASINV
B3: Actin-associated protein FAM107A (Homo sapiens), O95990 (parent)
chain: MYSEIQRERADIGGLMARPEYREWNPELIKPKKLLNPVKASRSHQELHRELLMNHRRGLGVDSKPELQRVLEHRRRNQLIKKKKEELEAKRLQCPFEQELLRRQQRLNQLEKPPEKEEDHAPEFIKVRENLRRIATLTSEEREL
B4: TNF receptor-associated factor 2 (Homo sapiens), Q12933 (parent)
chain: MAAASVTPPGSLELLQPGFSKTLLGTKLEAKYLCSACRNVLRRPFQAQCGHRYCSFCLASILSSGPQNCAACVHEGIYEEGISILESSSAFPDNAARREVESLPAVCPSDGCTWKGTLKEYESCHEGRCPLMLTECPACKGLVRLGEKERHLEHECPERSLSCRHCRAPCCGADVKAHHEVCPKFPLTCDGCGKKKIPREKFQDHVKTCGKCRVPCRFHAIGCLETVEGEKQQEHEVQWLREHLAMLLSSVLEAKPLLGDQSHAGSELLQRCESLEKKTATFENIVCVLNREVERVAMTAEACSRQHRLDQDKIEALSSKVQQLERSIGLKDLAMADLEQKVLEMEASTYDGVFIWKISDFARKRQEAVAGRIPAIFSPAFYTSRYGYKMCLRIYLNGDGTGRGTHLSLFFVVMKGPNDALLRWPFNQKVTLMLLDQNNREHVIDAFRPDVTSSSFQRPVNDMNIASGCPLFCPVSKMEAKNSYVRDDAIFIKAIVDLTGL

Variants of: B1
Conditions: with krt38_human KRT38, O76015

Q: Which “effect of a mutation on the interaction” value does the source give for R213W here?
A: disrupting interaction strength

Q: H266R was tested. Which “effect of a mutation on the interaction” value did it give?
A: with no effect

Variants of: B2
Conditions: with dcor_human ODC1, P11926

Q: With V174A as the variant, how does the “effect of a mutation on the interaction” value read?
A: disrupting interaction strength

Q: How did the “effect of a mutation on the interaction” value turn out when R193Q was run?
A: disrupting interaction strength

Variants of: B3
Conditions: with cc136_human CCDC136, Q96JN2
cc136_human CCDC136, Q96JN2, sequence (Q96JN2 whole entry): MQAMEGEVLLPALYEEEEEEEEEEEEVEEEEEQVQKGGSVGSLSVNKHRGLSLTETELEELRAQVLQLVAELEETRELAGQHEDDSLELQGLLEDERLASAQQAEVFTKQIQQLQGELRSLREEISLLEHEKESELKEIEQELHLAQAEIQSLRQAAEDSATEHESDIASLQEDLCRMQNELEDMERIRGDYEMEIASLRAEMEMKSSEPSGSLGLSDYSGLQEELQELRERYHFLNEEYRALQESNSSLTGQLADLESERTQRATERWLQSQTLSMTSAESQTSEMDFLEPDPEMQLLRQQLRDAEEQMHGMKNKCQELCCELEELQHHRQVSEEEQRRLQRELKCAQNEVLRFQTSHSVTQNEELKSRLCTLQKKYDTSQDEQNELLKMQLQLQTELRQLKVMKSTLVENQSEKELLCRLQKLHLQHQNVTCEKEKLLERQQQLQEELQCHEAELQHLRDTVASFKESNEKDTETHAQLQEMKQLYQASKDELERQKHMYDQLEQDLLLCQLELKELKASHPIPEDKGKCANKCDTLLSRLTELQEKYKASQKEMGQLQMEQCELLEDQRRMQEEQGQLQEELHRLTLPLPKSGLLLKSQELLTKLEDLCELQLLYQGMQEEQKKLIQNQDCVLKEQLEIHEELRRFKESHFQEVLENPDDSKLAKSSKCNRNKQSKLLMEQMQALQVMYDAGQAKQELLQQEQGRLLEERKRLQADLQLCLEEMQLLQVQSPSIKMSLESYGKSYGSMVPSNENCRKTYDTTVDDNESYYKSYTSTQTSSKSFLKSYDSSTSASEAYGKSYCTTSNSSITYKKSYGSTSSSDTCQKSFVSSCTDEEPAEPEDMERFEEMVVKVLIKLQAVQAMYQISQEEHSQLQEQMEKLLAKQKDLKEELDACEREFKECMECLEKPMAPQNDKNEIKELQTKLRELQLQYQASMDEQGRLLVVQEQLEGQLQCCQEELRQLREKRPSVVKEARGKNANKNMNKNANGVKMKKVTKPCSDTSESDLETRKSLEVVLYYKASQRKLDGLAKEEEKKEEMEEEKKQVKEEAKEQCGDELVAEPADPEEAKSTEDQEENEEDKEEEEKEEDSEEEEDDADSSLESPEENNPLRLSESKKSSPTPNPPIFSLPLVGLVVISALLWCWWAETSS

Q: Which “effect of a mutation on the interaction” value does the source give for S63R here?
A: with no effect

Q: E141Q was tested. Which “effect of a mutation on the interaction” value did it give?
A: disrupting interaction strength

Variants of: B3
Conditions: with traf2_human TRAF2, Q12933

Q: How did the “effect of a mutation on the interaction” value turn out when S63R was run?
A: with no effect

Q: For E141Q, which “effect of a mutation on the interaction” value is on record?
A: disrupting interaction strength

Variants of: B4
Conditions: with traf1_human TRAF1, Q13077
traf1_human TRAF1, Q13077, sequence (Q13077 whole entry): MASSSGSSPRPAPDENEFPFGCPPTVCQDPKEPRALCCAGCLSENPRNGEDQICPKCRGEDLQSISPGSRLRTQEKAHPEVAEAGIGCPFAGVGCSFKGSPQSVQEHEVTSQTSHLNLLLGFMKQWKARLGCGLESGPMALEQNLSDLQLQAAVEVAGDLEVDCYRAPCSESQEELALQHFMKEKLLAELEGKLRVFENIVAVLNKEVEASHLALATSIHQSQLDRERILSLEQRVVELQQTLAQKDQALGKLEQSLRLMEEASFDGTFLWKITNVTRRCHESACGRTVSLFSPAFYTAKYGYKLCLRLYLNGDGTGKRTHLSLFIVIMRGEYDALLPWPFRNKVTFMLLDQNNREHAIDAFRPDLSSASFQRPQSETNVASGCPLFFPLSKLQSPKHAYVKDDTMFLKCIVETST

Q: With T134A as the variant, how does the “effect of a mutation on the interaction” value read?
A: with no effect

Q: For V206I, which “effect of a mutation on the interaction” value is on record?
A: with no effect

Q: Which “effect of a mutation on the interaction” value does the source give for A264T here?
A: with no effect
